Data as given in the supplement of paper PMC10065799, “High-throughput profiling of sequence recognition by tyrosine kinases and SH2 domains using bacterial peptide display” (eLife, 2023).

Columns and labels:
c-Abl (mouse) = assay: phosphorylation enrichment, bacterial display (enrichment ratio); higher = better substrate or ligand; peptides without Tyr show the background
Fes = Fes (UniProt P07332); assay: as above
MERTK = MERTK (UniProt Q12866); assay: as above
Hck = Hck (UniProt P08631); assay: as above
Fer (mouse) = assay: as above
FGFR1 = FGFR1 (UniProt P11362); assay: as above
Chain of FGFR1 (P11362 whole entry, looked up): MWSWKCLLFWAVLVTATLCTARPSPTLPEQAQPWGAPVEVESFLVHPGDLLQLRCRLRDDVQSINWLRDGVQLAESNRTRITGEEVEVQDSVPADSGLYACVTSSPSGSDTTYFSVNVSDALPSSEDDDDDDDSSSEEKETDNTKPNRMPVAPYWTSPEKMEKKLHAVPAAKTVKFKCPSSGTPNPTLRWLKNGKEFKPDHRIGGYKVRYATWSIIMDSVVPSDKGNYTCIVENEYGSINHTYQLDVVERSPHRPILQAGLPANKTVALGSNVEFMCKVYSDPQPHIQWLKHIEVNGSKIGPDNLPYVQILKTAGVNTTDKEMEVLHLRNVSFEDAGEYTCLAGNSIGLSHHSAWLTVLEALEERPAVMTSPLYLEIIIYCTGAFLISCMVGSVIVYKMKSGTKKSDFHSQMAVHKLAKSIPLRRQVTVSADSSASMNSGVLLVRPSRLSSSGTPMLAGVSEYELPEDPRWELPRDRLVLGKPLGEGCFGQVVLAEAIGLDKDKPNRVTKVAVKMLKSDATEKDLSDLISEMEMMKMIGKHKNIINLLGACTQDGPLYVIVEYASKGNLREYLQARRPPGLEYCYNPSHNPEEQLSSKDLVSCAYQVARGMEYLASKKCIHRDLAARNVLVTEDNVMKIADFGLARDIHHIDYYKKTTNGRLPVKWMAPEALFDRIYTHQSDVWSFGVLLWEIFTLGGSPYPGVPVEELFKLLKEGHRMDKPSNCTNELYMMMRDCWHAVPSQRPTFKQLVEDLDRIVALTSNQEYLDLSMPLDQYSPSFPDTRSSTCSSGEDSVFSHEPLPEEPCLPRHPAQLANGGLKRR

AncSZ = assay: as above
EPHB2 = EPHB2 (UniProt P29323); assay: as above
Chain of EPHB2 (P29323 whole entry, looked up): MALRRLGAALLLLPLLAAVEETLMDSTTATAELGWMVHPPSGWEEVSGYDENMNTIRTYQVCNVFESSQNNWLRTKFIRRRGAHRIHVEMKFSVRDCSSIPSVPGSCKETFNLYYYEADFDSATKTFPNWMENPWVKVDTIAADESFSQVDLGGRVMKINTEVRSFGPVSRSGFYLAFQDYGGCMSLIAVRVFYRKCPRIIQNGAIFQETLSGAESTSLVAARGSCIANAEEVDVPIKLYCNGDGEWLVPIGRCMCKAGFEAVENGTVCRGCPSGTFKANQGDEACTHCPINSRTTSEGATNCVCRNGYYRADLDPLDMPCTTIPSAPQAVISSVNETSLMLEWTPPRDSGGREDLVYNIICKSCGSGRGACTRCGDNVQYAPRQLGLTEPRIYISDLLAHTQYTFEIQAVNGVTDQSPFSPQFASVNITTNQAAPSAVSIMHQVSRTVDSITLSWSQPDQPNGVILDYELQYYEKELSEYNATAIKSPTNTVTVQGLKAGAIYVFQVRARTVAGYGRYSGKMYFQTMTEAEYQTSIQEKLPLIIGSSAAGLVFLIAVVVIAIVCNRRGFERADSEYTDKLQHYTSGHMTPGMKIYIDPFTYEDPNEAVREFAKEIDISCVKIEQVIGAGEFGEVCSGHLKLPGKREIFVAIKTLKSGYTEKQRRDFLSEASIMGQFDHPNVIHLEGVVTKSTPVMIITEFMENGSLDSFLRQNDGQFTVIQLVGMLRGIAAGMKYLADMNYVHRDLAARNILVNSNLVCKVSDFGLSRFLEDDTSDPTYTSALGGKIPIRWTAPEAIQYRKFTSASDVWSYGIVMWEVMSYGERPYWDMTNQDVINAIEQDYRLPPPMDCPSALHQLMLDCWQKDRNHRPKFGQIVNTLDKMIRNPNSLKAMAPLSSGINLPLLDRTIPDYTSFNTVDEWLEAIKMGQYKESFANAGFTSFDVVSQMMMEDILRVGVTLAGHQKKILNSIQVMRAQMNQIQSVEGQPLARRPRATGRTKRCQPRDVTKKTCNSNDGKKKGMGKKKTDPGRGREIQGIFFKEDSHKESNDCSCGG

Jak2 = Jak2 (UniProt O60674); assay: as above
EPHB1 = EPHB1 (UniProt P54762); assay: as above
Chain of EPHB1 (P54762 whole entry, looked up): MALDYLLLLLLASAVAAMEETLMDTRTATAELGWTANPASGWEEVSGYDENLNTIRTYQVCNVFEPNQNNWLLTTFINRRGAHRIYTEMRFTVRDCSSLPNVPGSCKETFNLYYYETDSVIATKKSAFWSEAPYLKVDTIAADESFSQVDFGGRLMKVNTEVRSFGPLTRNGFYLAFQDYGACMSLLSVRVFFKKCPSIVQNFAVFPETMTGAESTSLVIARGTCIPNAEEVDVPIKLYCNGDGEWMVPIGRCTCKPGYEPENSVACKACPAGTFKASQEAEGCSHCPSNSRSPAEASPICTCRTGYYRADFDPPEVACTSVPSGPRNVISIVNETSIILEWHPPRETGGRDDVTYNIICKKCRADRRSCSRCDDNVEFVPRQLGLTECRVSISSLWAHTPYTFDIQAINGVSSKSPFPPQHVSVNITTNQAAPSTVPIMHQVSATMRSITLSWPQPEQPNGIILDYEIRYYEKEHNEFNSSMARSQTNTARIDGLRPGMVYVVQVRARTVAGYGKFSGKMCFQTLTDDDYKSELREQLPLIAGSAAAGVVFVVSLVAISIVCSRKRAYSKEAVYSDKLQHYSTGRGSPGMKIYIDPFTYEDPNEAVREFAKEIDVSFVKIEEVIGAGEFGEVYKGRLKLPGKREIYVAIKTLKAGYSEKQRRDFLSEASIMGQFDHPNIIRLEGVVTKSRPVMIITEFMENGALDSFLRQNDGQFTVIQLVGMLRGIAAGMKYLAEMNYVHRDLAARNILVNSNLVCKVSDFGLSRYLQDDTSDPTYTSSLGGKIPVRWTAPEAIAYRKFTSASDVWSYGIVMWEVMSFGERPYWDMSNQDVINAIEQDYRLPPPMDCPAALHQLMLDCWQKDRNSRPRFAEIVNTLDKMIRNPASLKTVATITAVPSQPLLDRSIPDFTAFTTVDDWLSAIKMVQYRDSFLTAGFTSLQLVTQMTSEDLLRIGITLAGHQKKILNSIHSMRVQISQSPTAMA

Fyn = Fyn (UniProt P06241); assay: as above
FGFR3 = FGFR3 (UniProt P22607); assay: as above
c-Src = assay: as above
c-Src SH2 = assay: SH2 binding enrichment of the phosphorylated peptide, bacterial display (enrichment ratio); higher = better substrate or ligand; peptides without Tyr show the background
SHP2-C SH2 = assay: as above
Grb2 SH2 = Grb2 SH2 (UniProt P62993); assay: as above
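Wherever SH2 binding enrichment of the phosphorylated peptide, bacterial display is given: peptide library displayed on the E. coli surface as eCPX fusions, selected cells deep-sequenced, score is each peptide's frequency after selection divided by its frequency in the input.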
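Wherever phosphorylation enrichment, bacterial display is given: 11-residue human phosphosite peptides and single-mutation variants displayed on the E. coli surface, counted by deep sequencing, each peptide's frequency after selection divided by its frequency in the unselected input library; frequency after pTyr selection over input frequency; kinase dosed for 20-30% of maximal phosphorylation in three min.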

Chain of MERTK (Q12866 whole entry, looked up): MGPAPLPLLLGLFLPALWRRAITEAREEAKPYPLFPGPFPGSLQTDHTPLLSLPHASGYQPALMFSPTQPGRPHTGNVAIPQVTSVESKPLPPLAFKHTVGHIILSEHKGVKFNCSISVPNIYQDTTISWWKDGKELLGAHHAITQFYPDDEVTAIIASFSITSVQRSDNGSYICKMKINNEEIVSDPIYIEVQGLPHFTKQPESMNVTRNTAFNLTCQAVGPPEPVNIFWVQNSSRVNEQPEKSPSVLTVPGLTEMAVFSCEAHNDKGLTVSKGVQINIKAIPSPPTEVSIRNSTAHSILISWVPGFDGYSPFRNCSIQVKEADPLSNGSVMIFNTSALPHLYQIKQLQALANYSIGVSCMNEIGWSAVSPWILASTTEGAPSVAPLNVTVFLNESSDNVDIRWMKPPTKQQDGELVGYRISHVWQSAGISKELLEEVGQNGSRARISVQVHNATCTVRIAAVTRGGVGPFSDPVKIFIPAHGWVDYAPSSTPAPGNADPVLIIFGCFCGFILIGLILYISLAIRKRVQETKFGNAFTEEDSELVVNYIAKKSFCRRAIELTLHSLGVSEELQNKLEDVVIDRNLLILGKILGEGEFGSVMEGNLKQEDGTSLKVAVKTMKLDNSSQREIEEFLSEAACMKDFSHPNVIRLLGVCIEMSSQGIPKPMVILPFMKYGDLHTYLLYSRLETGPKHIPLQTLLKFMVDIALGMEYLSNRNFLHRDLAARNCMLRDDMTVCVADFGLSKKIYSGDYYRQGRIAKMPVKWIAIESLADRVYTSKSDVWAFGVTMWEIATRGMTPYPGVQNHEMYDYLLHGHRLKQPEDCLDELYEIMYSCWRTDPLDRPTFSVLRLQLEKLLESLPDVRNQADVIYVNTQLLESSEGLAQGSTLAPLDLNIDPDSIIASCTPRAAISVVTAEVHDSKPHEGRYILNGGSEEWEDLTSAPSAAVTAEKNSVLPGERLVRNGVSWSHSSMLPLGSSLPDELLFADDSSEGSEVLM
Chain of Fes (P07332 whole entry, looked up): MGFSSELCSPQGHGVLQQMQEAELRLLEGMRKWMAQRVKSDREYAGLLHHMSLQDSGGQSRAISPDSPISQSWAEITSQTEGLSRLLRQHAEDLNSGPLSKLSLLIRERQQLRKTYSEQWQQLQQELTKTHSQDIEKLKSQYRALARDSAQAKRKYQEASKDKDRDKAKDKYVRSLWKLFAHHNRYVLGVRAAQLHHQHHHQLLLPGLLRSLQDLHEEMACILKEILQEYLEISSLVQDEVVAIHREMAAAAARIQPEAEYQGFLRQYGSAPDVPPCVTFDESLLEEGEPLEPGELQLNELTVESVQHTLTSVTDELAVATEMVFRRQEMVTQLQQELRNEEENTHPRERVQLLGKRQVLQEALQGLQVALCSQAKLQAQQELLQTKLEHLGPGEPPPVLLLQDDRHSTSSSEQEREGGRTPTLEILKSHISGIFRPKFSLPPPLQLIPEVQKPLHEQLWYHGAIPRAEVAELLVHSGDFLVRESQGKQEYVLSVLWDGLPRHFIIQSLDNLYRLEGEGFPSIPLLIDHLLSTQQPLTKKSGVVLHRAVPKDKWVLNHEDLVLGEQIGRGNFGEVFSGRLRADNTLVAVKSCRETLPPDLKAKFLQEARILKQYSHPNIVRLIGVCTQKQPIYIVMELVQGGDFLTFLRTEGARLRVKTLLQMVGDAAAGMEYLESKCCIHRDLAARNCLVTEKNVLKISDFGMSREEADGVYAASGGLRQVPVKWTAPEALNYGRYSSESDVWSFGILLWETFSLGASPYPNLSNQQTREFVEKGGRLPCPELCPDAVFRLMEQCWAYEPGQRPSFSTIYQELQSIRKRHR

SH2 binding enrichment (c-Src SH2) | SH2 binding enrichment (SHP2-C SH2) | SH2 binding enrichment (Grb2 SH2) | Sequence | phosphorylation enrichment (c-Abl (mouse)) | phosphorylation enrichment (Fes) | phosphorylation enrichment (MERTK) | phosphorylation enrichment (Hck) | phosphorylation enrichment (Fer (mouse)) | phosphorylation enrichment (FGFR1) | phosphorylation enrichment (AncSZ) | phosphorylation enrichment (EPHB2) | phosphorylation enrichment (Jak2) | phosphorylation enrichment (EPHB1) | phosphorylation enrichment (Fyn) | phosphorylation enrichment (FGFR3) | phosphorylation enrichment (c-Src)
0.395 | 0.633 | 0.665 | SSVKLYRVFCD [FGB_Y266_P265L_YF] | 0.648 | 1.12 | 0.41 | 0.514 | 0.469 | 0.487 | 0.945 | 0.668 | 0.935 | 0.579 | 0.468 | 0.749 | 0.47
1.1 | 0.949 | 1.11 | NPEACYQRLKK [TK2_Y190_T188A] | 0.558 | 0.597 | 0.484 | 0.802 | 0.419 | 0.381 | 0.63 | 0.507 | 0.892 | 0.417 | 0.474 | 0.471 | 0.685
0.578 | 0.758 | 0.981 | EPYEVYRIVPE [IRF8_Y110_K108E] | 1.25 | 1.15 | 1.05 | 4.62 | 8.85 | 4.53 | 3.39 | 1.9 | 0.994 | 1.45 | 6.69 | 3.35 | 6.54
0.506 | 0.821 | 0.982 | FPPTHYIRRMP [SLC4A11_Y820_V824M_YF] | 0.718 | 0.981 | 0.524 | 0.601 | 0.445 | 0.498 | 0.919 | 0.661 | 0.597 | 0.528 | 0.561 | 0.502 | 0.543
0.436 | 0.645 | 0.87 | KEAALYPHLLP [SQSTM1_Y383_P387L] | 0.549 | 0.757 | 0.432 | 0.438 | 0.419 | 0.512 | 0.648 | 0.544 | 0.649 | 0.427 | 0.405 | 0.481 | 0.366

Second part, the sequence before the results:

Sequence | SH2 binding enrichment (c-Src SH2) | SH2 binding enrichment (SHP2-C SH2) | SH2 binding enrichment (Grb2 SH2) | phosphorylation enrichment (c-Abl (mouse)) | phosphorylation enrichment (Fes) | phosphorylation enrichment (MERTK) | phosphorylation enrichment (Hck) | phosphorylation enrichment (Fer (mouse)) | phosphorylation enrichment (FGFR1) | phosphorylation enrichment (AncSZ) | phosphorylation enrichment (EPHB2) | phosphorylation enrichment (Jak2) | phosphorylation enrichment (EPHB1) | phosphorylation enrichment (Fyn) | phosphorylation enrichment (FGFR3) | phosphorylation enrichment (c-Src)
GREEFYVHFVG [KAT8_Y90_YF] | 0.472 | 0.621 | 0.867 | 0.896 | 1.52 | 0.559 | 0.581 | 0.513 | 0.582 | 1.23 | 0.602 | 1.37 | 0.661 | 0.458 | 0.841 | 0.693
NELTFYCCKKD [CD59_Y87_YF] | 0.503 | 0.707 | 0.938 | 0.808 | 1.28 | 0.466 | 0.46 | 0.461 | 0.54 | 1.39 | 0.739 | 1.29 | 0.514 | 0.452 | 0.715 | 0.436
TYQYKYPEGSS [TGM4_Y440_E437Q] | 0.631 | 0.586 | 0.834 | 0.691 | 0.905 | 0.429 | 0.455 | 0.509 | 0.425 | 0.85 | 0.56 | 0.743 | 0.548 | 0.567 | 0.63 | 0.494
PYVYYYSYLLK [PTEN_Y178_R173P] | 0.669 | 0.598 | 0.873 | 3.68 | 1.87 | 5.9 | 3.46 | 1.1 | 6.02 | 1.99 | 1.92 | 4.21 | 3.56 | 1.88 | 6.37 | 3.14
YETDYYRKGGK [INSR_Y1190] | 0.622 | 0.676 | 0.675 | 0.752 | 0.864 | 0.427 | 0.469 | 0.392 | 0.522 | 0.668 | 0.419 | 0.83 | 0.41 | 0.398 | 0.492 | 0.338
PQDVTYAQLHS [LILRB4_Y412] | 0.973 | 1.52 | 0.56 | 0.815 | 1.22 | 0.645 | 6.52 | 0.685 | 0.351 | 0.959 | 0.999 | 0.786 | 1.22 | 4.37 | 0.75 | 2.8
PEQAAYQKVVA [HBB_Y131_V127E] | 0.669 | 0.497 | 0.782 | 1 | 1.07 | 0.483 | 0.561 | 0.681 | 0.519 | 0.591 | 0.811 | 1.08 | 0.613 | 0.462 | 0.524 | 0.472
RALCHYFKLNI [ETV6_Y401_R399C_YF] | 1.5 | 2.22 | 1.34 | 1.09 | 1.37 | 0.634 | 0.776 | 0.719 | 0.783 | 1.33 | 0.885 | 1.27 | 0.691 | 0.54 | 0.975 | 0.667
VDHFGYNKDDK [APOB_Y740_T741N] | 0.465 | 0.595 | 0.665 | 0.974 | 0.874 | 0.434 | 0.436 | 0.398 | 0.465 | 1.02 | 0.528 | 1.1 | 0.427 | 0.485 | 0.493 | 0.485
